Columns and labels:
[1] = biological target: HuR (Recombinant Human Elav-like protein 1, ELAVL1/HuR) (Homo sapiens, UniProt Q15717); assay: fluorescence anisotropy, displacement of pri-miR-7-1 CTL 6-FAM RNA from purified recombinant HuR; RP-CONA in HeLa extracts gave IC50 […]; type: binding
[2] = test system: HuR (ELAV-like protein 1), recombinant (human); assay: fluorescence anisotropy; details: Anisotropy: phosphate buffer pH 7.5, 25 mM MgCl (so in the source), 250 mM NaCl, 0.1% Tween 20, 5 mM DTT, temperature not stated; RP-CONA: cell extract on …
[3] = test system: mCherry-HuR (human (HeLa HuR KO cells; HuR species implied)?); assay: RP-CONA (on-bead RNA pull-down, confocal imaging); details: Anisotropy: phosphate buffer pH 7.5, 25 mM MgCl (so in the source), 250 mM NaCl, 0.1% Tween 20, 5 mM DTT, temperature not stated, RP-CONA: cell extract on …

Sequence of HuR (Recombinant Human Elav-like protein 1, ELAVL1/HuR) (Q15717 2-326): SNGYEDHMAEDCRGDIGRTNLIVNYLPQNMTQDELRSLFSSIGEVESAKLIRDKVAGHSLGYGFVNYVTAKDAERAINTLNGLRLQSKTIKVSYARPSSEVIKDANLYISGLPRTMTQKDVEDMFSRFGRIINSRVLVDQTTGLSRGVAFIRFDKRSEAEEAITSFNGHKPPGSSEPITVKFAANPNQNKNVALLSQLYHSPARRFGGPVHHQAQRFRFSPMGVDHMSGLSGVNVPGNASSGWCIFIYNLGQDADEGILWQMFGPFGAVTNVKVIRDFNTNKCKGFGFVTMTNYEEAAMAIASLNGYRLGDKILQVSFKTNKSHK

CC1=NN(c2ccc(C)c(C)c2)C(=O)/C1=N\Nc1cccc(-c2cccc(C(=O)O)c2)c1O [E20, Eltrombopag]
IC50 [1]: 19 µM

pri-miR-7-1-6-FAM CTL, anisotropy
IC50 [2]: 19 µM

pri-miR-7 CTL (pri-miR-7-6-FAM), RP-CONA
binding signal ([3]; 20 uM Eltrombopag): 80 % inhibition
IC50 ([3]; IC50 is of Eltrombopag (0-50 uM) inhibiting the complex, not HuR affinity): 5.9 µM
